{
  "source": "patent US9493781B2",
  "about": "“Synthetic brassica-derived chloroplast transit peptides” (DOW AGROSCIENCES LLC, priority 2012, dated 2016)",
  "molecules": {"B1": {"name": "pDAB105532: TraP9 v2 -- dgt-28 v5: binary construct TraP9 v2: dgt-28 v5 (SEQ ID NO:35) (nucleic acid)", "DNA": "ATGGCACAAGCCAGCCGTATCTGCCAGAATCCATGTGTGATATCCAATCTCCCCAAAAGCAACCACCGTAAGTCCCCTTTCTCTGTCTCACTCAAGACGCATCAGCCTAGAGCCTCTTCATGGGGACTTAAGAAGTCTGGCACCATGCTGAACGGTTCAGTGATTAGACCCGTCAAGGTGACAGCTTCTGTTTCCGCAGCAAGAGGGATGCCAGCCTTGTCTTTACCTGGATCAAAGAGTATCACAGCTAGGGCACTCTTTCTTGCTGCTGCTGCTGATGGGGTTACTACTTTGGTGAGGCCATTGAGAAGTGACGACACAGAAGGATTCGCTGAGGGGTTAGTTCGTTTAGGCTATCGTGTAGGGAGGACACCCGATACTTGGCAAGTCGATGGCAGACCACAAGGACCAGCAGTGGCTGAGGCTGACGTCTACTGTAGAGACGGAGCAACCACCGCTAGATTCTTGCCAACCTTAGCAGCTGCTGGTCACGGAACATACAGATTTGATGCTTCACCACAGATGAGGAGACGTCCTCTTTTGCCCTTAAGCAGAGCCTTGAGGGATTTGGGTGTCGATCTTAGACACGAAGAAGCTGAAGGTCATCACCCTCTGACTGTCCGTGCTGCTGGGGTTGAAGGAGGAGAGGTTACTTTGGATGCTGGTCAGTCAAGTCAGTATCTCACTGCCTTGTTGCTCCTTGGTCCCCTTACAAGACAAGGACTGAGGATAAGGGTTACTGATTTGGTGTCAGCACCATACGTGGAGATTACGCTTGCAATGATGAGGGCTTTCGGAGTTGAAGTGGCAAGGGAGGGAGATGTGTTCGTTGTTCCACCTGGTGGATATCGTGCAACTACGTATGCTATAGAACCCGACGCAAGTACTGCTTCTTACTTCTTCGCAGCTGCTGCTTTGACTCCTGGAGCTGAAGTGACTGTACCTGGGTTAGGCACGGGAGCACTTCAAGGAGATTTGGGATTTGTAGATGTCTTAAGGAGAATGGGAGCCGAGGTGTCCGTAGGAGCTGATGCAACCACTGTTAGAGGAACTGGTGAATTGCGTGGCCTTACAGCCAACATGAGAGACATAAGTGATACGATGCCGACCCTCGCTGCAATAGCACCCTTTGCTAGTGCTCCAGTTAGAATCGAGGATGTTGCCAACACTCGTGTCAAAGAATGTGACAGACTTGAGGCTTGTGCAGAGAACCTTAGGAGGTTGGGAGTAAGGGTTGCAACGGGTCCGGACTGGATTGAGATACACCCTGGTCCAGCTACTGGTGCTCAAGTCACAAGCTATGGTGATCACAGAATTGTGATGTCATTTGCAGTGACTGGACTTCGTGTGCCTGGGATCAGCTTCGACGACCCTGGCTGTGTTCGTAAGACTTTTCCTGGGTTTCACGAGGCTTTCGCAGAATTGAGGCGTGGCATTGGGAGCTGA", "modifications": "In-frame fusion of dgt-28 v5 and TraP9 v2"}},
  "key": {"[1]": {"test_system": "Arabidopsis", "assay": "Heritability progeny test of T1 families (T2 plants) with glufosinate, Arabidopsis", "format": "in vivo, Arabidopsis thaliana", "settings": "progeny test of 100 T2 plants, glufosinate 200 g ae/ha", "source_text": "Heritability. Confirmed transgenic T1 Arabidopsis events were self-pollinated to produce T2 seed. These seed were progeny tested by applying Ignite™ herbicide containing glufosinate (200 g ae/ha) to 100 random T2 siblings. […] The T1 families (T2 plants) segregated in the anticipated 3 Resistant: 1 Sensitive model for a dominantly inherited single locus with Mendelian inheritance as determined by Chi square analysis (P>0.05). […] Seed were collected from 5 to 15 T2 individuals (T3 seed). Twenty-five T3 siblings from each of 3-4 randomly-selected T2 families were progeny tested as previously described."}, "[2]": {"test_system": "Arabidopsis", "assay": "dgt-28, dgt-32, dgt-33, dgt-3, dgt-7 transformed Arabidopsis (T1, T2, T3) response to postemergence glyphosate, % visual injury", "format": "in vivo, Arabidopsis thaliana", "settings": "14 days after application", "summary_of_the_method": "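Transgenic T1, T2 and T3 Arabidopsis (low-copy events for T2/T3, hemizygous and homozygous in T2) sprayed postemergence with glyphosate at 105, 420, 1,680 or 3,360 g ae/ha. Visual injury scored 2 weeks after treatment as mean, SD and range. Non-transformed Columbia served as sensitive control.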"}, "[3]": {"settings": "Table 8, T1 Arabidopsis, 105 g ae/ha glyphosate"}, "[4]": {"settings": "Table 8, T1 Arabidopsis, 420 g ae/ha glyphosate"}, "[5]": {"settings": "Table 8, T1 Arabidopsis, 1680 g ae/ha glyphosate"}, "[6]": {"settings": "Table 8, T1 Arabidopsis, 3360 g ae/ha glyphosate"}, "[7]": {"settings": "Table 10, T1 Arabidopsis, 1,680 g ae/ha glyphosate"}, "[8]": {"settings": "Table 12, T2 Arabidopsis, 1 copy, 420 g ae/ha glyphosate"}, "[9]": {"settings": "Table 12, T2 Arabidopsis, 1 copy, 840 g ae/ha glyphosate"}, "[10]": {"settings": "Table 12, T2 Arabidopsis, 1 copy, 1680 g ae/ha glyphosate"}, "[11]": {"settings": "Table 12, T2 Arabidopsis, 1 copy, 3360 g ae/ha glyphosate"}},
  "data": [
    {"molecule": "B1", "values": [
      {"measurement": "T1 Families Tested Segregating at 1 Locus (%)", "setting": "[1]", "result": 100, "unit": "%"},
      {"measurement": "% Injury Ave", "setting": "[2]; [3]", "result": 17.5, "unit": "%"},
      {"measurement": "% Injury Range (%)", "setting": "[2]; [3]", "result": "0-60%"},
      {"measurement": "No. plants with 20-40% injury", "setting": "[2]; [3]", "result": 0},
      {"measurement": "No. plants with <20% injury", "setting": "[2]; [3]", "result": 3},
      {"measurement": "No. plants with >40% injury", "setting": "[2]; [3]", "result": 1},
      {"measurement": "% Injury Ave", "setting": "[2]; [4]", "result": 39.5, "unit": "%"},
      {"measurement": "% Injury Range (%)", "setting": "[2]; [4]", "result": "18-70%"},
      {"measurement": "No. plants with 20-40% injury", "setting": "[2]; [4]", "result": 1},
      {"measurement": "No. plants with <20% injury", "setting": "[2]; [4]", "result": 1},
      {"measurement": "No. plants with >40% injury", "setting": "[2]; [4]", "result": 2},
      {"measurement": "% Injury Ave", "setting": "[2]; [5]", "result": 26.3, "unit": "%"},
      {"measurement": "% Injury Range (%)", "setting": "[2]; [5]", "result": "5-80%"},
      {"measurement": "No. plants with 20-40% injury", "setting": "[2]; [5]", "result": 0},
      {"measurement": "No. plants with <20% injury", "setting": "[2]; [5]", "result": 3},
      {"measurement": "No. plants with >40% injury", "setting": "[2]; [5]", "result": 1},
      {"measurement": "% Injury Ave", "setting": "[2]; [6]", "result": 25.8, "unit": "%"},
      {"measurement": "% Injury Range (%)", "setting": "[2]; [6]", "result": "8-75%"},
      {"measurement": "No. plants with 20-40% injury", "setting": "[2]; [6]", "result": 0},
      {"measurement": "No. plants with <20% injury", "setting": "[2]; [6]", "result": 3},
      {"measurement": "No. plants with >40% injury", "setting": "[2]; [6]", "result": 1},
      {"measurement": "% Injury Ave", "setting": "[2]; [7]", "result": 26.3, "unit": "%"},
      {"measurement": "% Injury Range (%)", "setting": "[2]; [7]", "result": "5-80%"},
      {"measurement": "No. plants with 20-40% injury", "setting": "[2]; [7]", "result": 0},
      {"measurement": "No. plants with <20% injury", "setting": "[2]; [7]", "result": 3},
      {"measurement": "No. plants with >40% injury", "setting": "[2]; [7]", "result": 1},
      {"measurement": "% Injury Ave", "setting": "[2]; [8]", "result": 2.0, "unit": "%"},
      {"measurement": "% Injury Range (%)", "setting": "[2]; [8]", "result": "0-8%"},
      {"measurement": "No. plants with 20-40% injury", "setting": "[2]; [8]", "result": 0},
      {"measurement": "No. plants with <20% injury", "setting": "[2]; [8]", "result": 4},
      {"measurement": "No. plants with >40% injury", "setting": "[2]; [8]", "result": 0},
      {"measurement": "% Injury Ave", "setting": "[2]; [9]", "result": 9.0, "unit": "%"},
      {"measurement": "% Injury Range (%)", "setting": "[2]; [9]", "result": "8-12%"},
      {"measurement": "No. plants with 20-40% injury", "setting": "[2]; [9]", "result": 0},
      {"measurement": "No. plants with <20% injury", "setting": "[2]; [9]", "result": 4},
      {"measurement": "No. plants with >40% injury", "setting": "[2]; [9]", "result": 0},
      {"measurement": "% Injury Ave", "setting": "[2]; [10]", "result": 7.3, "unit": "%"},
      {"measurement": "% Injury Range (%)", "setting": "[2]; [10]", "result": "2-12%"},
      {"measurement": "No. plants with 20-40% injury", "setting": "[2]; [10]", "result": 0},
      {"measurement": "No. plants with <20% injury", "setting": "[2]; [10]", "result": 4},
      {"measurement": "No. plants with >40% injury", "setting": "[2]; [10]", "result": 0},
      {"measurement": "% Injury Ave", "setting": "[2]; [11]", "result": 11.0, "unit": "%"},
      {"measurement": "% Injury Range (%)", "setting": "[2]; [11]", "result": "10-12%"},
      {"measurement": "No. plants with 20-40% injury", "setting": "[2]; [11]", "result": 0},
      {"measurement": "No. plants with <20% injury", "setting": "[2]; [11]", "result": 4},
      {"measurement": "No. plants with >40% injury", "setting": "[2]; [11]", "result": 0}
    ]}
  ]
}
